Test: soluble on expression in E. coli; label from the status in PepcDB or PDB records

Sequence	soluble on expression in E. coli
MGSDKIHHHHHHMLTASSITLQFASKPLFENVNVKFGDGNRYGLIGANGSGKSTFMKILAGELEPTAGNVSLDPGERMAWLRQDQFGYEDQRVLDVVMQGHVEMWRVMQEKDAIYMNPEASEEDYLRAAELEGKFGELGGYDAEARAGELLLGVGIPTEQHQGTMSQIAPGFKLRVLLAQALFSKPDILLLDEPTNNLDINTIRWLEQVLNESNATIVVISHDRHFLNQVCTHMADLDYGTIKVWPGNYDDYMLASSEAKARQAAANARAKDKVAELQEFVRRFSANKSKARQATSRMKMIDKIKIEDFKPSSRQNPYIRFEPEKALHRRALEVENLKFGYDAEPLFTNLGFSLEAGEKLAVIGGNGVGKSTLMKLLMGELTPAYGEIRWSENANVGYFSQDHVADFDMDLNLTDWMHQWTQAGDDEQVLRGILGRLLFSGDDVKKSVRVLSGGEKGRMLYGKLMLGRHNVLVMDEPTNHMDMESIESLNLALELFKGTLIFVSHDRQFVSSLATRILEITPQGVEFYMGNYDEYLHSKGLE	not soluble
MSLARTNVMIAETFPEYLVDHNLIDCEVESLCNGMVRYEKRPARRRDGSVAEGLYNAWIIFNNPRQYNSYTTEMVKATILAFRRASVDREVNAVVFTGVGDKAFCTGGNTKEYAEYYAGNPQEYRQYMRLFNDMVSSILGCDRPVICRVNGMRIGGGQEIGMACDFSIAQDLAKFGQAGPKHGSAAIGGATDFLPIMIGCEQAMVSGTLCEPFSAHKAARLGIIADVVPALKVGGTFVANPTVVTDRFLDEYGRVVQGEFKTGADFKAGQARIKEGEVDLSLLDEKVEELCAKLLETFPECMTKSLEELRKPKLQAWNLNKENSRAWLALNMMNEARIGFRAFNEGTKETGREIDFVKLRRQLAEGTPWAEELIEEGHHHHHH	soluble
MSLVMSMANKREPAPGWPIVSGEYVVGNPESCVGVVTLGSHGLEQACIDAGAAIAGPCHTENLGIEKVVANYISNPNIRFMILCGSEVQGHITGQCFKALWENGIGDDGGIIGAKGAIPFLENVNKEAVERFRRQIVEVVDLIDCEDIGKITQAIKECLSKDPGAIDEDPFIIELEGGKGGGEEEEGVIKPITPEMAIIESRMRLIGNEMCYNGLLAKWQAGYYNGKEGHHHHHH	not soluble
TDAQKRRRAVGHALAYAGYAEIIPSPFMDPEVFDVWGLAADDERRKTVSVLNPLEAERNVLSTSLLPSMLDAVKRNVARGHNDFSLFGLQQVAFEHGSGVSPMPSVASRPEESVVAELVDSLPNQPLHVATVGTGNIEFEGPWGKGRAYTFADAIESARAVARAAGVTLELANADALPWHPGRCAALLIDGTPVGYAGELHPQILEKAGLPARTCAMELDLSALP	not soluble
MFCSSNIPIRLRDKKENNSIIVLPGGSEKSAAGQWRPHLPT	not soluble
PRLWEGQDVLARWTDGLLYLGTIKKVDSAREVCLVQFEDDSQFLVLWKDISPAAL	soluble
AAAAAAMTMMDMNFKYCHKIMKKHSKSFSYAFDLLPEDQRKAVWAIYAVCRKIDDSIDVYGDIQFLNQIKEDIQSIEKYPYEYHHFQSDRRIMMALQHVAQHKNIAFQSFYNLIDTVYKDQHFTMFETDAELFGYCYGVAGTVGEVLTPILSDHETHQTYDVARRLGESLQLINILRDVGEDFENERIYFSKQRLKQYEVDIAEVYQNGVNNHYIDLWEYYAAIAEKDFRDVMDQIKVFSIEAQPIIELAARIYIEILDEVRQANYTLHERVFVEKRKKAKLFHEINSKYHRI	soluble
MSAKLISVTKPVVEGVNTAEELIAYAARVSNPENQINNKTASGLLKYCIRHKHWSIFETAFMTLELKTSRGIAAQVIRHRSFHFQEFSQRYASVMETPPPHQARFQDHKNRQNSLDTVPEDDQTWWATEQEKLYAQSMELYNKALEKGIAKECARFILPLSTPTTIYMSGTIRDWIHYIELRTSNGTQREHIDLANACKEIFIKEFPSIAKALDWVH	soluble
MILEKAREILEEHQLCNHCLGRLFGKLGKGTNEERGRAIRLLLSMETGKEYKEPEKCELCGGVFNNLDKFAELCIKAAEGIEFETFWVGSRFPEEIEKKEEEIWRKFRVVSGEKITKEFNRELGKVIAVRYGKTPVKERPDVVFIVEPFSEKVELQVNPIYVAGRYRKLIRGIPQTPAPGFKESIATIICRAFKKHFHGKCIFKGAGREDVDVRMLGNGRPFVVEIKRPRKRKVNLKDIEEEINQSGKVEVLNLRFITPEEAERILTTRHRKVYEAIVYVKDGITKEEVEKVVKSLKNAEIKQRTPRRVLNSRADLVRVRKVYDVKGELIDDKHFKLRLVTDGGLYIKELISGDRGRTTPSVSEILGKEAWCEILDVLEVLDDVEGDNLEHHHHHH	not soluble
MGSDKIHHHHHHMEVERISGLKFHKKQDVAIVGAGMTTFKRRLNETGRELSYLAVKQALEEAGLTIDDIEMVVMGSAPDAFDGFHMKGEYLLDGSGGSNRPYMRVFVGGGTGVFAPIAGYWHVASGLADVCLVVCEEKMSSVHPHPQSAFKYIWDPILDRPLNPNLIWIFALEMRRYMHVHNIKHEDIALVSVKNKANALDHPCAQVAEKITVEDVLNSEPMALPVRRLDVSPPSDGAAALIMVAPHIARQLTDNPVWVTGVGWALDTTWWTNRDLYFPRYVAEAAKMAYRMAHITDPRKEIDVAEPYDPFDYKELHHMEGLGLAKKGEAPILTREGVTQRDGDLPTCPSGGLLGVGNPIAATMGVKACEIYWQLAYRAGKRQVAKEVTTGVCQAWGDLMQVGTVMVMSNKR	not soluble
MLKKRELQDCHALYELMVHPDVFPFVRQKASSYEEFLFMTKQLMEAEERGELISRTILDEWGNPIGTISLFDIQDGAGFLGTWLGKPYHGLGYNRRAKEAFFHELFYELSIETVFLRIRKVNVRSIKAAEKLPYVTPANETRRALLEQIGADVYNLYEITKDNYTLYTMRHPSFAHNEEQRKEA	not soluble
MPPASLTFEPPSVVAVFATHAVLCWEQPRTPHTTSFAEHMAWEYQIEYNCSCRVRQQPYCATGSNTFVLLATPHEGETYYVRVVAKASFAGSTSGLVSAKAAFTASCNVAMPWRCSARPPVCVFDALYLSANVEAEDIAALSAARSSTIDNAAVLDGKSVCYTLEGDIAVRTYRMLYSGTAALPVGPARTVYYMVATTRLHTGKRTRAMELLSIMQREGASIVFCGIGDGGRLALCAALTFLSFLTTACPALCASVLCITYGTPRLLLKEGPRLLAHTLPLSGQLLHFTQLPLIEHTPFVSDTVALSQRGSGVAVDTPPLGYANGFYRNMLLGAQCRVTDWTGLHFRLSSPDELSTEAEEAEVFDVVGQLRALSELFFPSSLQWLSPSVTSVSCRTEGPLLHVSVEGLTCITALG	not soluble
MARLNVKPTRMELSNLKNRLKTATRGHKLLKDKRDELMRRFVDLIRENNELRQTLEKELAANMKEFVLAKASENSLMVEELFAVPVHEVTLWIDIENIMSVNVPKFHVQSNTAREQEQGEFAYSYLSSNSEMDNTIQKTKELLEKLLRLAEVEKTCQLMADDIEKTRRRVNGLEYSIIPQLEETIHYIELKLEEAERASLVRIMKITSLEHHHHHH	not soluble
GERIDIRISPYLQDLFDAARADGVYPIVASGYRTTEKQQEIMDEKVAEYKAKGYTSAQAKAEAETWVAVPGTSEHQLGLAVDINADGIHSTGNEVYRWLDENSYRFGFIRRYPPDKTEITGVSNEPWHYRYVGIEAATKIYHQGLCLEEYLNTEK	not soluble
MDKKPSKKKVAIIGGGVAGSTIAMYLSKFDIEIDLFEQGTSLVNGPPICHLHAGGNLYREISDEQCIALLTESIQTAQFFPHSLNIRPTIIAVPKDDRAEASDLLPRLNLLQKHYLELIEQSKKNEVFGRPEDYFTTFTKQELFEIAKLEPTNQPRSMTEWMIPFAKTTDLEQIKYPVVIVQEYGLSVFRMASTAQLVLSEQSNVNLHLSCRVEKLNKQDNGNWFLSFSNSDTVTSCNFDYVINCAGFRTGIIDDLAQQQTKRLVEFKAAYVTHWNSDFFGKWPEVIFHGERGTPKGMAQLTPYPNGYFQLHGMTEEITLFKDGLSRSSELSSQPQLPEKFINKITNGWKESIQQERTEKAIKHLSQFISSFETASTAGKPLYGAQQIPGDDITLRAATINYDGHGYFRAEIVKASSAIECAKQIAQTIKLSTEINTLTQPSNDDVCHLAEQFAIERGYPVELAQTYLEHHHHHH	not soluble

Source: the DeepSol protein solubility set
